In patent publication US20180087080A1 one finds Kd data, which are given here for two substances.

The target in assay [1] is FcγRIIIa receptor (UniProt P08637). As to the kind of experiment: SPR (Biacore), FcγRIIIa immobilised, run 2. On the technique in general: In SPR one partner is held on a chip, and binding of the other changes the refractive index at the surface.
The target is the same in assay [2]. As to the kind of experiment: SPR (Biacore), FcγRIIIa immobilised, run 1.
Assay [3] shares this target. In words: SPR (Biacore), FcγRIIIa immobilised; sample with 5.1 % afucosylation.
Assay [4] has the same target. In words: SPR (Biacore), FcγRIIIa immobilised; sample with 9.6 % afucosylation.

Chain of UniProt P08637 (P08637 17-208 limits assumed): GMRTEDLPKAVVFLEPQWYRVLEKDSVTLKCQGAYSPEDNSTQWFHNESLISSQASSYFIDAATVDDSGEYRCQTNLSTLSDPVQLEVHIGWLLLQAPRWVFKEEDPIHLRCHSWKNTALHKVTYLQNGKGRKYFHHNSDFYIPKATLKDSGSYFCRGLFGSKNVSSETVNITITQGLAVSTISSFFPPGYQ

Usually Kd stands for the equilibrium constant for the complex coming apart. A high value points to a looser complex. For “Itolizumab produced from mouse derived NS0 cell line (T1h) (antibody)”, the Kd in the assay with FcγRIIIa receptor [1] came to 508 nM; in the assay with FcγRIIIa receptor [2], 372 nM.

Regarding “Itolizumab produced from Chinese Hamster Ovary (CHO) cell line (Bmab-600) (antibody)”, the values for the Kd in the assay with FcγRIIIa receptor [3] and with FcγRIIIa receptor [4] were 328 nM and 306 nM, respectively.
